{"source": "patent US20240026344A1", "biological_target": "AAV8 capsids (adeno-associated virus 8 (AAV8))", "test": "BLI (ForteBio), control ligand on sensor, AAV8 capsids 5x10^11 particles/mL, response after 4000 s"}
{"substance": "Non-binding ligand (control) (designed binder)", "values": [{"measurement": "Response", "result": 0.03}]}
